# Data reported in patent US20190071518A1 (PIERRE FABRE MEDICAMENT, published 2019).
# Substitutions are numbered along the chain they refer to.
# B1: enzymatically deglycosylated 1022C3 (antibody, V domains shown)
# VH: QVTLKESGPGILQPSQTLSLTCSFSGFSLDTSGMGVSWIRQPSGKGLEWLAHIYWDDDKRYNPSLKSRLTISKDTSSNQVFLKITSLDTADTATYYCARRSHFGNYYYAMDYWGQGTSVTVTS
# VL: DVQMTQTTSSLSASLGDRVTISCRASQDISSYLNWYQQKPDGTFKLLIFYTSRLQSGVPSKYSGSGSGTDYSLTISNLEQEDIAAYFCQQGKTLPLTFGAGTKLELK
# notes: also called 1022C3 enzymatically deglycosylated
# B2: murine monoclonal antibody 1022C3 (antibody, V domains shown)
# VH: B1 VH with D30N
# VL: B1 VL
# modifications: N-glycosylated asparagine in CDR-H1
# notes: Murine IgG from hybridoma I-4686, captured by anti-mouse antibody in the SPR assays; also called m1022C3; mAb 1022C3
# Tests used:
# [1] = molecular target: T1, ADAM17 on the surface of human tumour cells (A431 substrate-Nluc cells; NCI-H1299) (human, UniProt P78536 215-824); assay: flow cytometry on the tumour cell line NCI-H1299, antibody titration
# T1 construct: Endogenous ADAM17 of human tumour cell lines; also called ADAM17 at the plasma membrane; tumour cell line NCI-H1299
# T1 sequence (P78536 215-824 limits assumed): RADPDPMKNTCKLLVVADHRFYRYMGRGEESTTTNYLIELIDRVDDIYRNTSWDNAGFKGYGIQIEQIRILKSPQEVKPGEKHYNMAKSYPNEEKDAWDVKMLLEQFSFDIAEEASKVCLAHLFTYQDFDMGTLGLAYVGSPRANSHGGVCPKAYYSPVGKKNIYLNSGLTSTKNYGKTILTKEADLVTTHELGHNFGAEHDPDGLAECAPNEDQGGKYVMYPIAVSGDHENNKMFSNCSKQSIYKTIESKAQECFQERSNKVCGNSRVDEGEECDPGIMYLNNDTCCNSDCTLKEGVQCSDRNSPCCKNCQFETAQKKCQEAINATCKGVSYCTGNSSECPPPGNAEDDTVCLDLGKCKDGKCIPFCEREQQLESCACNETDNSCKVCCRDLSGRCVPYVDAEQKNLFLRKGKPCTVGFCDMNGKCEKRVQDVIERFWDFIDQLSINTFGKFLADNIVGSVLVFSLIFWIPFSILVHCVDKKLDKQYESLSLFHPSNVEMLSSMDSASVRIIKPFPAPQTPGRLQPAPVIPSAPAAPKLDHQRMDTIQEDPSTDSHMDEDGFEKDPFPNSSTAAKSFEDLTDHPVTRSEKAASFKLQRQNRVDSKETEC
# [2] = molecular target: T2, human ADAM17 H223-563 (C-D) human Fc fusion (human, UniProt P78536 223-563); assay: SPR (Biacore X100), about 700 RU m1022C3 captured, analyte 250 nM, FC2-FC1
# T2 construct: not shown: human Fc domain at the C-terminus
# T2 sequence (P78536 223-563): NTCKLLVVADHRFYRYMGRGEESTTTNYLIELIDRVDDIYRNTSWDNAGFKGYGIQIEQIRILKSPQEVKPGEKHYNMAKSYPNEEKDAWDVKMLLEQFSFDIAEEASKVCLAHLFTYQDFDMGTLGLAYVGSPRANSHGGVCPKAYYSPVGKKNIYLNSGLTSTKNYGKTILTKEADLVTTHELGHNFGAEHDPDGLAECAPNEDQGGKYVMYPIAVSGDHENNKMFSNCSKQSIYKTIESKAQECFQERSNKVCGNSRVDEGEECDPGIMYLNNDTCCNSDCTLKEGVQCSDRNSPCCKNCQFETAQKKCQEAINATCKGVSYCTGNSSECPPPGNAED
# Method: (§1) The experiment was performed on a Biacore X100 device. The 1022C3 is used as the ligand and the ADAM17 fragments and chimeric constructs are used as the analyte. The experiment is run at 10 μl/min at 25° C. on a rabbit anti-mouse polyclonal antibody (Mouse antibody capture kit, BR-1008-38, GE Healthcare) covalently linked to the matrix of both flowcells of a CM5 sensorchip (BR-1000-12) using the amine coupling kit (BR-1000-50, GE Healthcare), using the HBS-EP+ buffer (BR-1008-26, GE Healthcare) as the running buffer. This buffer is also used for the dilutions of the ligand and the analytes.
# (§2) A solution of the 1022C3 at the concentration of 15 μg/ml is injected on the second flowcell (working surface) during 1 minute. At each cycle, one of the ADAM17 chimeric constructions (with a human Fc domain at the c-terminal positions) is injected at the concentration of 250 nM during 3 minutes on both flow cells: the reference without any 1022C3 (FC1) and the working cell with around 700 RU of m1022C3 (FC2). The registered signal corresponds to the difference between FC2 and FC1 responses.
# [3] = molecular target: T3, human ADAM17 H475-602 (D-MPD (Nter)) human Fc fusion (human, UniProt P78536 475-602); assay: as above
# T3 construct: not shown: human Fc domain at the C-terminus
# T3 sequence (P78536 475-602): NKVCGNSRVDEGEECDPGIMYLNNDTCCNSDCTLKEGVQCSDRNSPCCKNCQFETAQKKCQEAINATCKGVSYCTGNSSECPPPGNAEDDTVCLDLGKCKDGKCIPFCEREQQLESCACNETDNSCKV
# Method: as §1, §2
# [4] = molecular target: T4, human ADAM17 H223-602 (C-D MPD (Nter)) human Fc fusion (human, UniProt P78536 223-602); assay: as above
# T4 construct: not shown: human Fc domain at the C-terminus
# T4 sequence (P78536 223-602): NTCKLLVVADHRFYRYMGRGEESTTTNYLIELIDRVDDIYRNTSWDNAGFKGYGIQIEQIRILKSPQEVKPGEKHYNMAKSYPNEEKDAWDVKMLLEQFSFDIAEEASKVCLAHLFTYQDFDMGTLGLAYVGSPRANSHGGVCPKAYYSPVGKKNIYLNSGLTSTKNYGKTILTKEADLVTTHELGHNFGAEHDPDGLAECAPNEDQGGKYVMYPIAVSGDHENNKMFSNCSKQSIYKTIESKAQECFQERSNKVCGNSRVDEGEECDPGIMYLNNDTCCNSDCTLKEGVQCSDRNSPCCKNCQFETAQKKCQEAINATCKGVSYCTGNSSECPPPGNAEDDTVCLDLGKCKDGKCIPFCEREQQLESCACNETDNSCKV
# Method: as §1, §2
# [5] = molecular target: T5, human ADAM17 H475-563 (D) human Fc fusion (human, UniProt P78536 475-563); assay: as above
# T5 construct: not shown: human Fc domain at the C-terminus
# T5 sequence (P78536 475-563): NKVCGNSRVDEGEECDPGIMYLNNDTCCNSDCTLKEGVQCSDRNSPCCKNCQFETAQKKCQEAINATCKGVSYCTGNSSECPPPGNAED
# Method: as §1, §2
# [6] = molecular target: T6, human ADAM17 H1-474 (P-C) human Fc fusion (human, UniProt P78536 18-474); assay: as above
# T6 construct: Range as printed; not shown: human Fc domain at the C-terminus
# T6 sequence (P78536 18-474): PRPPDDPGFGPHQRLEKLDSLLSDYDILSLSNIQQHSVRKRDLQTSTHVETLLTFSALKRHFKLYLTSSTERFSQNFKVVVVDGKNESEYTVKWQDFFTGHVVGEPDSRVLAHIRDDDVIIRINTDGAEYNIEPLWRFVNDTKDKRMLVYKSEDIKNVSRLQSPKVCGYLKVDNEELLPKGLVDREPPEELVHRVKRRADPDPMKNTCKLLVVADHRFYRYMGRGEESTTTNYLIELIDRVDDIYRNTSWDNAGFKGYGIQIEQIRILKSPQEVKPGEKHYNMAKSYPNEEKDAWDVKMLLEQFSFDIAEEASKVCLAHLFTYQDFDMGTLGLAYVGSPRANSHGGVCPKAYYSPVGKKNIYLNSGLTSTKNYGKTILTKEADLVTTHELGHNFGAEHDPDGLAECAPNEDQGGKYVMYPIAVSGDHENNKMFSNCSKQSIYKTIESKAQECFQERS
# Method: as §1, §2
# [7] = molecular target: T7, human ADAM17 H603-671 (MPD (Cter)) human Fc fusion (human, UniProt P78536 603-671); assay: as above
# T7 construct: not shown: human Fc domain at the C-terminus
# T7 sequence (P78536 603-671): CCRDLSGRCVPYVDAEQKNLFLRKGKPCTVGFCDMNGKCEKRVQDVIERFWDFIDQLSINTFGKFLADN
# Method: as §1, §2
# [8] = molecular target: soluble ADAM17 (extracellular domain of ADAM-17) (human, UniProt P78536 215-671); assay: SPR (Biacore), antibody captured on rabbit anti-mouse IgG, soluble ADAM17 400-12.5 nM, 1:1 Langmuir fit
# Chain of soluble ADAM17 (extracellular domain of ADAM-17) (P78536 215-671): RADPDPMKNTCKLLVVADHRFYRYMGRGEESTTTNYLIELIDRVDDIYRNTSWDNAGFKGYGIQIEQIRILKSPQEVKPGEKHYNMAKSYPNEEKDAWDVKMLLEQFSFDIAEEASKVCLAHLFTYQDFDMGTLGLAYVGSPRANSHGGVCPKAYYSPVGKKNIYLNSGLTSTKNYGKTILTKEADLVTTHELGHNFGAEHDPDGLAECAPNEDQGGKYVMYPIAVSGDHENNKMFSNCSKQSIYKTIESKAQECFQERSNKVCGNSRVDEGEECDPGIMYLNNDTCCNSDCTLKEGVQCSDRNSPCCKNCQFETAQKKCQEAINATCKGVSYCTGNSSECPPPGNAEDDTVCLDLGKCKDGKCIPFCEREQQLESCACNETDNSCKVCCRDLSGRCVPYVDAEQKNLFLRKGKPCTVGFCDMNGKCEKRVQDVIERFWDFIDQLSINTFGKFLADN
# Method: The antibody (ligand) was bound to the second flowcell of a Biacore CM5 sensor chip (GE Healthcare) activated on both flowcells with a Rabbit anti-Mouse (RAM) IgG (H+L) covalently linked to the carboxymethyldextran matrix. Soluble ADAM17 (analyte) at concentrations ranging from 400 to 12.5 nM obtained by a two fold dilution scheme (assuming a molecular weight of 52 kDa) was injected onto the surface at a flow rate of 30 μl/min in a 120 s pulse (association) plus an extra 180 s delay for the dissociation phase measurement. The RAM surface was regenerated using NaOH 30 mM, NaCl 150 mM and 10 mM Glycine, HCl pH 1.5 buffer solutions. Curves obtained at each concentration were double referenced by first subtracting the signal from the reference FC1 surface (RAM without any mouse anti-TACE mAb) followed by subtraction of the signal obtained from a running buffer injection (Biacore HBS-EP buffer).
# Data were processed using BIAevaluation 3.1 software using the 1:1 Langmuir model. The suitability of the fit was measured by the values of the Refractive Index (RI) which have to tend to zero and the κ² value.
# rhADAM10 = molecular target: T8, rhADAM10 (human, UniProt O14672); assay: ELISA on coated rhADAM10 (2.5 µg/ml), OD 450 nm
# T8 construct: also called recombinant human ADAM10 (AD936, R&D Systems)
# T8 sequence (recombinant ADAM10 polypeptide, looked up): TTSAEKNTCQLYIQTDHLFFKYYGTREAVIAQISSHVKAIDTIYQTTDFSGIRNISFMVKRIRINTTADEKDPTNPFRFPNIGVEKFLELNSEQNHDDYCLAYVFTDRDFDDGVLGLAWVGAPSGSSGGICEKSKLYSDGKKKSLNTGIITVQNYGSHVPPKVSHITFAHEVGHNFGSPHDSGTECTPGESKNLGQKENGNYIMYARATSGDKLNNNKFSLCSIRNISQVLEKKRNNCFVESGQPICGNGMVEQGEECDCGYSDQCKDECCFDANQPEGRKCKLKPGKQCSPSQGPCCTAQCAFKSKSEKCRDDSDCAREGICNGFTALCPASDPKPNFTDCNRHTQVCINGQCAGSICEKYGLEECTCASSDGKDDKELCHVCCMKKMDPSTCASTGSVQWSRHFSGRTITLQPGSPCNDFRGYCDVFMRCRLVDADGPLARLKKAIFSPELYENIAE
# Method: The binding of 1022C3 to human ADAM17 and ADAM10 was determined by ELISA in comparison to the anti human ADAM10 antibody AB936 (R&D Systems). A ninety six well ELISA plate was coated with 100 μl/well of recombinant human (rh)ADAM17 (930-ADB, R&D Systems) at a concentration of 1 μg/ml or rhADAM10 (AD936, R&D Systems) at a concentration of 2.5 μg/ml in PBS. The coating solution was incubated overnight at 4° C. The plates were then blocked with PBS containing 0.5% gelatin (#22151, Serva Electrophoresis GmbH, Heidelberg, Germany) for 2 h at 37° C. The saturation buffer discarded by flicking plates, 100 μl of 1022C3 at a concentration of 1 μg/ml in PBS or 5 μg/ml of anti human ADAM10 polyclonal (AB936, R&D Systems) was added to the ELISA plates and incubated for 1 h at 37° C. After three washes, 100 μl horseradish peroxidase-conjugated anti human (A7164, Sigma) or anti goat (115-035-164, Jackson ImmunoResearch Europe Ltd) antibody solution diluted 1/5000 in PBS were incubated for 1 h at 37° C. After three washes, 100 μl/well TMB substrate (#UP664782, Uptima, Interchim, France) was added. After a 10 min incubation time at room temperature, the reaction was stopped using 1 M sulphuric acid and the optical density at 450 nm was measured (FIG. 7).
# [9] = molecular target: ADAM17 fragments and chimeric constructs giving the positive response; assay: SPR (Biacore X100), about 700 RU m1022C3 captured, analyte 250 nM, FC2-FC1
# [10] = molecular target: murine ADAM17 M1-671 (p-c-d-mpd) human Fc fusion (murine; human) (UniProt Q9Z0F8); assay: as above
# Chain of murine ADAM17 M1-671 (p-c-d-mpd) human Fc fusion (murine; human) (Q9Z0F8 18-671 limits assumed, form in doubt): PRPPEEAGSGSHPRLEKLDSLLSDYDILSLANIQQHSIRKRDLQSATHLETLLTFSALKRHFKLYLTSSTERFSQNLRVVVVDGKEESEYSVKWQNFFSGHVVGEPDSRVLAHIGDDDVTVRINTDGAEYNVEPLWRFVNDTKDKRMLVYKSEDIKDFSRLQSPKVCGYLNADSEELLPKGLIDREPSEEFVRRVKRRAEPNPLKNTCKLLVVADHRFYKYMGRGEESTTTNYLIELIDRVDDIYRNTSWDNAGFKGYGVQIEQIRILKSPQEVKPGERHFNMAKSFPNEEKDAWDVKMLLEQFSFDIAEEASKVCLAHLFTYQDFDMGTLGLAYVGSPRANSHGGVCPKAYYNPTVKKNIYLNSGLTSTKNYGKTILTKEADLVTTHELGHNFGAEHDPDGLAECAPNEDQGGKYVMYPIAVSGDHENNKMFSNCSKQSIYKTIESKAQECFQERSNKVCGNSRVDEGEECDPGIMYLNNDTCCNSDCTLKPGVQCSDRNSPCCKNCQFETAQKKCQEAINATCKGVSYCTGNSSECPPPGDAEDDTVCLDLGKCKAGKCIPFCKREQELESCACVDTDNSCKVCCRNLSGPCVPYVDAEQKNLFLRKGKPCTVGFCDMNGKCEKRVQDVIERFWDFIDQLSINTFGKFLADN
# [11] = molecular target: murine/human chimeric ADAM17 M1-602H603-671 (p-c-d-mpd (Nter)-MPD (Cter)) human Fc fusion (murine; human) (UniProt Q9Z0F8); assay: as above
# Chain of murine/human chimeric ADAM17 M1-602H603-671 (p-c-d-mpd (Nter)-MPD (Cter)) human Fc fusion (murine; human) (Q9Z0F8 other isoform, or with tags, fused parts or gaps mutant limits assumed, form in doubt): as the sequence (Q9Z0F8 18-671 limits assumed, form in doubt) above, with N589D, P593R counted along it
Binder,EC50 (read off the curve) [1] [nM],response (RU) [2] [RU],response (RU) [3] [RU],response (RU) [4] [RU],response (RU) [5] [RU],response (RU) [6] [RU],response (RU) [7] [RU],Kd [8] [nM],koff [8] [s⁻¹],kon [8] [M⁻¹ s⁻¹],binding result (rhADAM10),response (RU) [9] [RU],response (RU) [10] [RU],response (RU) [11] [RU]
B1,~0.5,,,,,,,,,,,,,
B2,~0.5,< 10,< 10,< 10,< 10,< 10,< 10,1.27,0.00036,284000,no binding (tested: 1 µg/ml),90 to 140,< 10,< 10
